According to US20210188980A1 (SHANGHAI EPIMAB BIOTHERAPEUTICS, published 2021):

Tests used:
human PD-1-His protein [1] = target: T1, human PD-1-His protein (human, UniProt Q15116 25-167, limits assumed); assay: SPR Biacore
T1 construct: also called huPD-1; not shown: His tag

[2] = target: T2, human PD-1 expressed on cells (human, UniProt Q15116 25-288); assay: cell RBA FACS; competitor PD-L1/Fc
T2 construct: whole, on cells; also called CHO-K1/huPD-1; CHO-K1-hPD-1 cells

[3] = target: T2, human PD-1 expressed on cells; assay: cell RBA FACS; competitor PD-L2/Fc
[4] = target: T3, human PD-1 ECD/Fc fusion protein (human); assay: BLI Octet, immobilized huPD-1-Fc, Ab analyte
T3 construct: also called huPD-1/Fc; HuPD-1 ECD/Fc
T3 sequence (chain, as listed by the source limits assumed): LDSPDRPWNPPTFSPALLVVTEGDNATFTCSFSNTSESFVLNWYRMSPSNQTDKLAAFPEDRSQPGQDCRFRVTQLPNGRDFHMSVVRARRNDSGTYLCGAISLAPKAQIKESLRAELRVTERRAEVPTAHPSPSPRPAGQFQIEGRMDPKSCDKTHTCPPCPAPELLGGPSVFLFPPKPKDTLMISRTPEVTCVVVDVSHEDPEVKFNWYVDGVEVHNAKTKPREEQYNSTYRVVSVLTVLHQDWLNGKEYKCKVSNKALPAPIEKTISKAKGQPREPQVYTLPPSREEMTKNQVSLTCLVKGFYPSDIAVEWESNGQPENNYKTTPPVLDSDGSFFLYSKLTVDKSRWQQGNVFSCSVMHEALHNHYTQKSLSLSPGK
From the text: All 21 humanized antibodies and the chimeric antibody (mAb719c) were characterized by binding ELISA and affinity determination using Octet® RED96 biolayer interferometry system (Pall FortéBio LLG), using a biosensor having immobilized human PD-Fc as the antibody target. Rate constants were derived by making kinetic binding measurements at five different concentrations of antibody.

human PD-1-His protein [5] = target: T1, human PD-1-His protein; assay: SPR Biacore, Ab captured, huPD-1-His analyte
Procedure: (§1) All 15 humanized antibodies and the chimeric antibody (mAb709c) were characterized by binding ELISA and cell-based RBA. For cell-based RBA, 2×10⁵ cells/well of CHO-K1-huPD1 cells were added to a pre-blocked 96-well round-bottomed plate and after washing, 50 μl antibodies with diluted concentration ranging from 0.064 nM to 200 nM were added to each well. Next, 50 μl of 60 μg/ml biotinylated PD-L1/Fc or biotinylated PD-L2/Fc protein were added. After gentle mixing and incubation at 4° C., the cells were washed and stained by Alexa Fluor™ 488 streptavidin solution (1:1000, ThermoFisher Scientific; Cat. No. S32354). Signals were readout by FACS and curves were fitted by GraphPad software. […] The association and dissociation rate constants, k (M⁻¹ s⁻¹) and koff(s⁻¹), respectively, were determined by making kinetic binding measurements at five different concentrations of human PD-1-His protein at a continuous flow rate of 30 μl/min. The equilibrium dissociation constant KD (M) of the reaction between antibodies and related target proteins was calculated from the kinetic rate constants using the formula KD=koff/kₒₙ. HumAb709-8 had minimal back-mutation(s) while maintaining to the greatest extent the affinity of the parental variable domains on chimeric mAb709c.

[6] = target: T2, human PD-1 expressed on cells; assay: cell RBA FACS, CHO-K1-huPD1; competitor biotin-PD-L1/Fc
Procedure: as §1

[7] = target: T2, human PD-1 expressed on cells; assay: cell RBA FACS, CHO-K1-huPD1; competitor biotin-PD-L2/Fc
Procedure: as §1

T1 sequence (Q15116 25-167 limits assumed): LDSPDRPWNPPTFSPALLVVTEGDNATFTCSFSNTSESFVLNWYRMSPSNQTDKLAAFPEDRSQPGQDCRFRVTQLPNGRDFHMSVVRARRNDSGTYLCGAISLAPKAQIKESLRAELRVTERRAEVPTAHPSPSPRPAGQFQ
T2 sequence (Q15116 25-288): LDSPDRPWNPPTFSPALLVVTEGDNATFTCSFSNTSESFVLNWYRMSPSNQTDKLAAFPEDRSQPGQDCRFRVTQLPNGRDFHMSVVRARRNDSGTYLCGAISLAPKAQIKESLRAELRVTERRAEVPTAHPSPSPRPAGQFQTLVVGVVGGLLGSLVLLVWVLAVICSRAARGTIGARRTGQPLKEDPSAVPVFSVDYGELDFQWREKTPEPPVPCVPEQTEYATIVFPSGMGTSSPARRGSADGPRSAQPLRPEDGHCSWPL

B1: mAb713c (antibody, V domains shown)
VH: EVKLVESGGGLVKPGGSLELSCAASGFTSSDYGMHWVRQAPEKGLEWVAYISSGSYTIYYADTVKGRFTISRDNAKNTLFLQMTSLRSEDTAMYYCAKRGGSSHVNVMDYWGQGTSVTVSS
VL: DIQMTQSSSYLSVSLGGRVTITCKASDHINNWLAWYQQKPGNAPRLLISGATSLETGVPSRFSGSGSGKDYTLSITSLQTEDVATYYCQQYWSPPYTFGGGTKLEIK
notes: also called mAb73c
Kd (human PD-1-His protein [1]): 1.3 nM | koff (human PD-1-His protein [1]): 0.000284 s⁻¹ | kon (human PD-1-His protein [1]): 218000 M⁻¹ s⁻¹ | IC50 [2]: 0.91 nM | IC50 [3]: 2.2 nM

B2: HumAb713-3 (antibody, human IgG1, kappa, L234A L235A, V domains shown)
VH: EVQLVESGGGLVQPGGSLRLSCAASGFTSSDYGMHWVRQAPGKGLEWVSYISSGSYTIYYADTVKGRFTISRDNAKNSLYLQMNSLRDEDTAVYYCAKRGGSSHVNVMDYWGQGTTVTVSS
VL: DIQMTQSPSSLSASVGDRVTITCKASDHINNWLAWYQQKPGKAPKLLIYGATSLETGVPSRFSGSGSGTDFTFTISSLQPEDIATYYCQQYWSPPYTFGGGTKVEIKR
notes: humanized mAb713; also called HurnAb713-3
Kd (human PD-1-His protein [1]): 2.46 nM | koff (human PD-1-His protein [1]): 0.000208 s⁻¹ | kon (human PD-1-His protein [1]): 84500 M⁻¹ s⁻¹ | IC50 [2]: 0.77 nM | IC50 [3]: 1.24 nM

B3: HumAb713-11 (antibody, human IgG1, kappa, L234A L235A, V domains shown)
VH: EVQLVESGGGLVQPGGSLRLSCAASGFTSSDYGMHWVRQAPGKGLEWVSYISSGSYTIYYADTVKGRFTISRDNAKNSLYLQMNSLRDEDTAVYYCAKRGGSSHVNVMDYWGQGTTVTVSS
VL: DIQMTQSPSSLSASVGDRVTITCKASDHINNWLAWYQQKPGKAPKLLISGATSLETGVPSRFSGSGSGTDYTFTISSLQPEDIATYYCQQYWSPPYTFGGGTKVEIKR
notes: humanized mAb713
Kd (human PD-1-His protein [1]): 2.37 nM | koff (human PD-1-His protein [1]): 0.000378 s⁻¹ | kon (human PD-1-His protein [1]): 159000 M⁻¹ s⁻¹ | IC50 [2]: 0.51 nM | IC50 [3]: 0.97 nM

B4: HumAb713-1 (antibody, human IgG1, kappa, L234A L235A, V domains shown)
VH: EVQLVESGGGLVQPGGSLRLSCAASGFTFSDYGMHWVRQAPGKGLEWVSYISSGSYTIYYADTVKGRFTISRDNAKNSLYLQMNSLRDEDTAVYYCARRGGSSHVNVMDYWGQGTTVTVSS
VL: DIQMTQSPSSLSASVGDRVTITCKASDHINNWLAWYQQKPGKAPKLLIYGATSLETGVPSRFSGSGSGTDFTFTISSLQPEDIATYYCQQYWSPPYTFGGGTKVEIKR
notes: humanized mAb713
Kd (human PD-1-His protein [1]): 11.1 nM | koff (human PD-1-His protein [1]): 0.001 s⁻¹ | kon (human PD-1-His protein [1]): 90100 M⁻¹ s⁻¹ | IC50 [2]: 0.5 nM | IC50 [3]: 1.2 nM

B5: HumAb719-11 (antibody, human IgG1, kappa, L234A L235A, V domains shown)
VH: EVQLLESGGGLVQPGGSLRLSCAASGFSFSSHLMSWVRQAPGKGLEWVAAISGGGADTYYPDSVKGRFTISRDNSKNTLYLQMNSLRAEDTAVYYCTRQILAFDSWGQGTTVTVSS
VL: DIQMNQSPSSLSASVGDRVTITCHASQNIYVWLNWYQQKPGKAPKLLIYKASNLHTGVPSRFSGSGSGTDFTFTISSLQPEDIATYYCQQGQSYPWTFGGGTKVEIKR
notes: humanized mAb719
Kd [4]: 3.82 nM | koff [4]: 0.000227 s⁻¹ | kon [4]: 59400 M⁻¹ s⁻¹

B6: HumAb709-7 (antibody, human IgG1, kappa, L234A L235A, V domains shown)
VH: EVQLVESGGGLVQPGGSLRLSCAASGFTFSFYTMSWVRQAPGKGLEWVATISGGGRDTYYPDSVKGRFTISRDNAKNSLYLQMNSLRAEDTAVYYCARQGGNYLFAYWGQGTLVTVSS
VL: DIVMTQSPSSLSASVGDRVTITCKASQDVNTVVAWYQQKPGKAPKVLISWASTRHTGVPSRFSGSGSGTDYTLTISSLQPEDFATYYCQQHYTTPYTFGGGTKVEIKR
notes: humanized mAb709
Kd (human PD-1-His protein [5]): 2.36 nM | koff (human PD-1-His protein [5]): 0.000336 s⁻¹ | kon (human PD-1-His protein [5]): 141000 M⁻¹ s⁻¹ | IC50 [6]: 0.4 nM | IC50 [7]: 0.84 nM

B7: HumAb709-8 (antibody, human IgG1, kappa, L234A L235A, V domains shown)
VH: EVQLVESGGGLVQPGGSLRLSCAASGFTFSFYTMSWVRQAPGKGLEWVATISGGGRDTYYPDSVKGRFTISRDNAKNSLYLQMNSLRAEDTAVYYCAGQGGNYLFAYWGQGTLVTVSS
VL: DIVMTQSPSSLSASVGDRVTITCKASQDVNTVVAWYQQKPGKAPKVLISWASTRHTGVPSRFSGSGSGTDYTLTISSLQPEDFATYYCQQHYTTPYTFGGGTKVEIKR
notes: humanized mAb709; also called HurnAb709-8
Kd (human PD-1-His protein [5]): 0.368 nM | koff (human PD-1-His protein [5]): 4.69e-05 s⁻¹ | kon (human PD-1-His protein [5]): 127000 M⁻¹ s⁻¹ | IC50 [6]: 0.44 nM | IC50 [7]: 1 nM

B8: HumAb709-10 (antibody, human IgG1, kappa, L234A L235A, V domains shown)
VH: EVQLVESGGGLVQPGGSLRLSCAASGFTFSFYTMSWVRQAPGKGLEWVATISGGGRDTYYPDSVKGRFTISRDNAKNSLYLQMNSLRAEDTAVYYCARQGGNYLFAYWGQGTLVTVSS
VL: DIVMTQSPSSLSASVGDRVTITCKASQDVNTVVAWYQQKPGKAPKVLISWASTRHTGVPSRFTGSGSGTDYTLTISSLQPEDFATYYCQQHYTTPYTFGGGTKVEIKR
notes: humanized mAb709
Kd (human PD-1-His protein [5]): 2.04 nM | koff (human PD-1-His protein [5]): 0.000297 s⁻¹ | kon (human PD-1-His protein [5]): 146000 M⁻¹ s⁻¹ | IC50 [6]: 0.29 nM | IC50 [7]: 0.8 nM

B9: HumAb709-14 (antibody, human IgG1, kappa, L234A L235A, V domains shown)
VH: EVQLVESGGGLVQPGGSLRLSCAASGFTFSFYTMSWVRQAPGKGLEWVATISGGGRDTYYPDSVKGRFTISRDNAKNSLYLQMNSLRAEDTAVYYCAGQGGNYLFAYWGQGTLVTVSS
VL: DIVMTQSPSSLSASVGDRVTITCKASQDVNTVVAWYQQKPGKSLKVLISWASTRHTGVPSRFTGSGSGTDYTLTISSLQPEDFATYYCQQHYTTPYTFGGGTKVEIKR
notes: humanized mAb709
IC50 [6]: 0.51 nM | IC50 [7]: 0.92 nM

B10: HumAb709-13 (antibody, human IgG1, kappa, L234A L235A, V domains shown)
VH: EVQLVESGGGLVQPGGSLRLSCAASGFTFSFYTMSWVRQAPGKGLEWVATISGGGRDTYYPDSVKGRFTISRDNAKNSLYLQMNSLRAEDTAVYYCARQGGNYLFAYWGQGTLVTVSS
VL: DIVMTQSPSSLSASVGDRVTITCKASQDVNTVVAWYQQKPGKSLKVLISWASTRHTGVPSRFTGSGSGTDYTLTISSLQPEDFATYYCQQHYTTPYTFGGGTKVEIKR
notes: humanized mAb709
IC50 [6]: 0.5 nM | IC50 [7]: 0.78 nM

B11: HumAb709-12 (antibody, human IgG1, kappa, L234A L235A, V domains shown)
VH: EVQLVESGGGLVQPGGSLRLSCAASGFTFSFYTMSWVRQAPGKRLEWVATISGGGRDTYYPDSVKGRFTISRDNAKNSLYLQMNSLRAEDTAVYYCAGQGGNYLFAYWGQGTLVTVSS
VL: DIVMTQSPSSLSASVGDRVTITCKASQDVNTVVAWYQQKPGKAPKVLISWASTRHTGVPSRFTGSGSGTDYTLTISSLQPEDFATYYCQQHYTTPYTFGGGTKVEIKR
notes: humanized mAb709; also called HuntAb709-12
IC50 [6]: 0.45 nM | IC50 [7]: 1.35 nM

B12: HumAb709-15 (antibody, human IgG1, kappa, L234A L235A, V domains shown)
VH: EVQLVESGGGLVQPGGSLRLSCAASGFTFSFYTMSWVRQAPGKRLEWVATISGGGRDTYYPDSVKGRFTISRDNAKNSLYLQMNSLRAEDTAVYYCAGQGGNYLFAYWGQGTLVTVSS
VL: DIVMTQSPSSLSASVGDRVTITCKASQDVNTVVAWYQQKPGKSLKVLISWASTRHTGVPSRFTGSGSGTDYTLTISSLQPEDFATYYCQQHYTTPYTFGGGTKVEIKR
notes: humanized mAb709
IC50 [6]: 0.9 nM | IC50 [7]: 1.21 nM

B13: HumAb709-1 (antibody, human IgG1, kappa, L234A L235A, V domains shown)
VH: EVQLVESGGGLVQPGGSLRLSCAASGFTFSFYTMSWVRQAPGKGLEWVATISGGGRDTYYPDSVKGRFTISRDNAKNSLYLQMNSLRAEDTAVYYCARQGGNYLFAYWGQGTLVTVSS
VL: DIQMTQSPSSLSASVGDRVTITCKASQDVNTVVAWYQQKPGKAPKLLIYWASTRHTGVPSRFSGSGSGTDYTLTISSLQPEDFATYYCQQHYTTPYTFGGGTKVEIKR
notes: humanized mAb709
Kd (human PD-1-His protein [5]): 11 nM | koff (human PD-1-His protein [5]): 0.00215 s⁻¹ | kon (human PD-1-His protein [5]): 195000 M⁻¹ s⁻¹ | IC50 [6]: 1.02 nM | IC50 [7]: 1.64 nM

B14: HumAb709-2 (antibody, human IgG1, kappa, L234A L235A, V domains shown)
VH: EVQLVESGGGLVQPGGSLRLSCAASGFTFSFYTMSWVRQAPGKGLEWVATISGGGRDTYYPDSVKGRFTISRDNAKNSLYLQMNSLRAEDTAVYYCAGQGGNYLFAYWGQGTLVTVSS
VL: DIQMTQSPSSLSASVGDRVTITCKASQDVNTVVAWYQQKPGKAPKLLIYWASTRHTGVPSRFSGSGSGTDYTLTISSLQPEDFATYYCQQHYTTPYTFGGGTKVEIKR
notes: humanized mAb709
Kd (human PD-1-His protein [5]): 0.684 nM | koff (human PD-1-His protein [5]): 5.5e-05 s⁻¹ | kon (human PD-1-His protein [5]): 80300 M⁻¹ s⁻¹ | IC50 [6]: 0.47 nM | IC50 [7]: 0.99 nM
